For four substances, Kd results are on record in PMC5146963.

Data set [1] addresses T1, EcFrmR (Escherichia coli K12) (UniProt P0AAP3).
T1 sequence: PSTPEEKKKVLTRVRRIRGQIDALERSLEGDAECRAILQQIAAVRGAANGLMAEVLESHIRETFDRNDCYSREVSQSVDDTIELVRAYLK
Description: BLI. To be noted: BLItz, 50 mM Tris-HCl pH 8.0, 0.5 M NaCl, 20 C; 100 nM biotinylated DNA loaded on SA tips; EcFrmR concentrations as tetramer.

Data set [2] relates to EcFrmR (Escherichia coli K12). Put plainly: BLI. The conditions noted are these: BLItz, 50 mM Tris-HCl pH 8.0, 0.5 M NaCl, 20 C, 100 nM biotinylated DNA loaded on SA tips, EcFrmR concentrations as tetramer.

Where “and” joins values, the source holds several entries; their conditions need not be identical. Equal values may be shown once.

A word on the Kd: it is the concentration at which binding is half-saturated. As for “GGCCTTCCCTGCCGATTAGCCCCCCCCCCTTTCCTCTTTGTTTTCCGACCACATTCACCGGATAAATTTTATTCTCCAGTGTTATATACTATAGGGGGGTATGCATTGACATATAGAATACCCCCCTATAGTATATTGCATGCAGATGATGAGGTGCGAAATGCCCAGTACTCCGGAAGAGAAGAAA (double strand) [Pfrm (frmRAB promoter)]”, the dissociation constant Kd in data set [1] was 220 nM and 520 nM.

With “GTTAAGGGCTCAGAATAATCACATTATTTTTTCTCCTAACCATAAAGGATTAGTTTATCGGCGTTAATCTTTTCTCATACACTATCGGGTTAGGGAAAATATCTGGTGTTGGGGACAGAGTCAGCAGCGTATTAGTTGAATGCTTAATATCAGGCTGCTGAATTGTCAGCACTGTGTTTGCGAAGAGGATGCGAAATAAATGAACCCGGTTGATCGTCCACTATTAG (double strand) [PydhY]”, the Kd in data set [1] was 3600 nM. In other words, the single-digit micromolar range.

On to Pfrm (frmRAB promoter), for which the Kd in data set [2] (Zn(II)4-loaded tetramer, kf 5660 M-1 s-1, kr 0.003 s-1) was found to be 520 nM; in data set [2] (no Zn, no HCHO, kf 13000 M-1 s-1, kr 0.0028 s-1, text ~220, upper limit), 220 nM.

With PydhY, the Kd in data set [2] (no Zn, no HCHO, kf 1950 M-1 s-1, kr 0.007 s-1, text ~3600) was found to be 3600 nM.
